This note sets out measurements from patent US6569434 (MERCK, dated 2003).

In this test the target is T1, rat VEGF A subunit, 164 amino acid mature (secreted) form of the 190 amino acid translation product (rat, UniProt P16612 27-214).
T1 construct: also called VEGF AB, A subunit; A chain
T1 sequence: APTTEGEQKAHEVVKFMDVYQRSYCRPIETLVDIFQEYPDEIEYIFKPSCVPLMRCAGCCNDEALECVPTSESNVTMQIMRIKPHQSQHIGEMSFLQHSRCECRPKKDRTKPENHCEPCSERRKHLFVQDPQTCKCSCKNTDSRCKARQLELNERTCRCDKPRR
Description: purified native VEGF AB reduced and carboxymethylated; subunits separated by C4 reverse phase HPLC and N-terminally sequenced; single 58 kDa band non-reduced against about 23 kDa reduced on SDS-PAGE.

B1: rat VEGF B subunit, 135 amino acid mature form derived from the 158 amino acid full length form (ligand)
chain: ALSAGNNSTEMEVVPFNEVWGRSYCRPMEKLVYIADEHPNEVSHIFSPSCVLLSRCSGCCGDEGLHCVALKTANITMQILKIPPNRDPHSYVEMTFSQDVLCECRPILETTKAERRKTKGKRKQSKTPQTEEPHL
notes: Native subunit purified from GS-9L conditioned medium as part of VEGF AB; also called VEGF AB, B subunit; B chain
On to B1, for which the binding result was “binds”.
